Tests used:
Conditions in all cases: phage-displayed peptide
PSMA monomer = biological target: T1, PSMA monomer (Homo sapiens, UniProt Q04609); assay: phage-based ELISA, binding to PSMA monomer
T1 construct: purchased Molecular Express, Inc
Procedure: (§1) A Nunc Maxisorp plate was coated with 10 μg/mL PSMA monomer or dimer protein for 1 h. The coating solution was removed, and the plate was blocked for 1 h with 0.2% BSA in PBS and washed 5 times with PT (300 μL/well). The wells were then incubated with phage displaying PSMA-binding peptides (100 μL/well) at the indicated concentrations for 1 h. After washing five times with PT, the plate was incubated with HRP-conjugated anti-M13 phage antibody (100 μL, 1:5000) in 0.1% PBT buffer for 30 min, and washed three times with PT, and twice with PBS. The plate was then developed using an o-phenylenediamine dihydrochloride/H2O2 solution (100 μL, 1 mg mL-1/0.02%) in citric acid buffer (50 mM citric acid, 50 mM Na2HPO4, pH 5.0), and the HRP activity was measured as absorbance at 450 nm.
The previously reported PSMA binding peptides, PSMA-1 (amino acid sequence, […] (SEQ ID NO:3)) and PSMA-2 (amino acid sequence, […] (SEQ ID NO:4)), were compared for affinity to the homodimeric and monomeric isoforms of PSMA. Details regarding PSMA-1 and PSMA-2 may be found in Yang, L. M. et al., Anal. Chem. 2006, 78, 3265-3270, which is incorporated by reference herein. Though diagnostically irrelevant, the monomeric isoform of PSMA provides a control for the binding specificity. […]

PSMA dimer = biological target: T2, PSMA dimer (Homo sapiens, UniProt Q04609); assay: phage-based ELISA, binding to PSMA dimer
T2 construct: purchased Molecular Express, Inc
T2 sequence (Q04609 whole entry): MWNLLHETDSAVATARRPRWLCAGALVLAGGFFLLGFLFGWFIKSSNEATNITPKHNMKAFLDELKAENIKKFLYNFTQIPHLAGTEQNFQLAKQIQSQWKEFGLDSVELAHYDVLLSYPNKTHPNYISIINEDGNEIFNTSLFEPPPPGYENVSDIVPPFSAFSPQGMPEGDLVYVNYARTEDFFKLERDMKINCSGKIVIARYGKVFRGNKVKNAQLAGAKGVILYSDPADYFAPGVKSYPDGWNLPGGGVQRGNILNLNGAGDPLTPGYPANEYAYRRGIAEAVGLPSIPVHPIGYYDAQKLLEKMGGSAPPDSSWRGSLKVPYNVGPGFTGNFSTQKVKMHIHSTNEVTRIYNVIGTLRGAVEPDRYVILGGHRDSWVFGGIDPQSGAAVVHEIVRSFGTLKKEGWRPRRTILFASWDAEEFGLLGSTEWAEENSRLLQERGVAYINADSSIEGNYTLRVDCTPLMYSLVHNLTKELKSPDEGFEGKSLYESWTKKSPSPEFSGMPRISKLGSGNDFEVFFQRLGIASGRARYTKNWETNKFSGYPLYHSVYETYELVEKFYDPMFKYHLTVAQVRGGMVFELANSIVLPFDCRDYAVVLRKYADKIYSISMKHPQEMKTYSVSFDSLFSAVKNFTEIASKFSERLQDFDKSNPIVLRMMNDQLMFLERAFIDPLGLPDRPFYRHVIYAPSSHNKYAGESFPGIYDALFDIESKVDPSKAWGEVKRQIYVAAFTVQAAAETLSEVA
Procedure: as §1
The previously reported PSMA binding peptides, PSMA-1 (amino acid sequence, […] (SEQ ID NO:3)) and PSMA-2 (amino acid sequence, […] (SEQ ID NO:4)), were compared for affinity to the homodimeric and monomeric isoforms of PSMA. Details regarding PSMA-1 and PSMA-2 may be found in Yang, L. M. et al., Anal. Chem. 2006, 78, 3265-3270, which is incorporated by reference herein. Though diagnostically irrelevant, the monomeric isoform of PSMA provides a control for the binding specificity. […] Chosen for its specificity to the PSMA dimer, the PSMA-2 sequence provided the template for an affinity maturation library targeting the PSMA dimer.

TfR = TfR (Homo sapiens, UniProt P02786); assay: binding specificity, transferrin receptor
TfR, sequence (P02786 whole entry, species assumed): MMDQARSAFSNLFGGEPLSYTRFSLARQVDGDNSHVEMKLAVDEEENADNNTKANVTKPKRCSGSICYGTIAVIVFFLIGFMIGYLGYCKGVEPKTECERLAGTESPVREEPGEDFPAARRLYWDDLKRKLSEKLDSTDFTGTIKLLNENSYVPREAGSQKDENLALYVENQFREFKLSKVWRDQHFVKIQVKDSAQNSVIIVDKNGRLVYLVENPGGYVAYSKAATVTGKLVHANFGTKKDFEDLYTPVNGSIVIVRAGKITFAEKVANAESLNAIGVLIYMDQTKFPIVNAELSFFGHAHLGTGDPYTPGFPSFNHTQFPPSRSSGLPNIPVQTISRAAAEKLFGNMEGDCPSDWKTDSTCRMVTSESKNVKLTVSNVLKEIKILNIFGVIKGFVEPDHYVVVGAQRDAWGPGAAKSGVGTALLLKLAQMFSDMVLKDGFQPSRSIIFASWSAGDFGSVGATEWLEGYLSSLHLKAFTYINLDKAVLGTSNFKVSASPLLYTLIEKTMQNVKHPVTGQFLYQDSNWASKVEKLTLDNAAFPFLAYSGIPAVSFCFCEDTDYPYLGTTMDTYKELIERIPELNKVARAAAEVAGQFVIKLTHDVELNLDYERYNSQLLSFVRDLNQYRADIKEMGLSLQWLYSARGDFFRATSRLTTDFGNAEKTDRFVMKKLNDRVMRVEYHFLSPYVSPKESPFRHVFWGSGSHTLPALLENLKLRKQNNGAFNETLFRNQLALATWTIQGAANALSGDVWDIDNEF

casein = assay: binding specificity, casein

T1 sequence (Q04609 whole entry): as the sequence (Q04609 whole entry) above

| Sequence | binding to PSMA monomer (PSMA monomer) | binding to PSMA dimer (PSMA dimer) | binding to TfR (TfR) | binding to casein (casein) |
| --- | --- | --- | --- | --- |
| CALCEFLG (displayed on M13 phage) [PSMA-1] | binds to both isoforms of PSMA | binds to both isoforms of PSMA |  |  |
| LDCVEVFQNSCDW (displayed on M13 phage) [PSMA-2] |  | binds with high affinity and specificity to the PSMA dimer |  |  |
| SECVEVFQNSCDW (displayed on M13 phage) [PSMA-3] | not PSMA monomer | specific binding for the PSMA dimer | not | not |

Source: patent publication US9062353B2, “Electrically conductive polymer electrodes with incorporated viruses” (THE REGENTS OF THE UNIVERSITY OF CALIFORNIA, priority 2010, dated 2015)
